Data on 1 molecule can be found in PMC8390506, “Interaction of spindle assembly factor TPX2 with importins-α/β inhibits protein phase separation” (The Journal of Biological Chemistry, 2021).

Numbering of substitutions follows the chain as printed.

The target of data set [1] is T1, Targeting Protein for XKlp2 (TPX2), full length, wild type (Xenopus laevis, UniProt Q6NUF4 1-716).
T1 sequence (looked up): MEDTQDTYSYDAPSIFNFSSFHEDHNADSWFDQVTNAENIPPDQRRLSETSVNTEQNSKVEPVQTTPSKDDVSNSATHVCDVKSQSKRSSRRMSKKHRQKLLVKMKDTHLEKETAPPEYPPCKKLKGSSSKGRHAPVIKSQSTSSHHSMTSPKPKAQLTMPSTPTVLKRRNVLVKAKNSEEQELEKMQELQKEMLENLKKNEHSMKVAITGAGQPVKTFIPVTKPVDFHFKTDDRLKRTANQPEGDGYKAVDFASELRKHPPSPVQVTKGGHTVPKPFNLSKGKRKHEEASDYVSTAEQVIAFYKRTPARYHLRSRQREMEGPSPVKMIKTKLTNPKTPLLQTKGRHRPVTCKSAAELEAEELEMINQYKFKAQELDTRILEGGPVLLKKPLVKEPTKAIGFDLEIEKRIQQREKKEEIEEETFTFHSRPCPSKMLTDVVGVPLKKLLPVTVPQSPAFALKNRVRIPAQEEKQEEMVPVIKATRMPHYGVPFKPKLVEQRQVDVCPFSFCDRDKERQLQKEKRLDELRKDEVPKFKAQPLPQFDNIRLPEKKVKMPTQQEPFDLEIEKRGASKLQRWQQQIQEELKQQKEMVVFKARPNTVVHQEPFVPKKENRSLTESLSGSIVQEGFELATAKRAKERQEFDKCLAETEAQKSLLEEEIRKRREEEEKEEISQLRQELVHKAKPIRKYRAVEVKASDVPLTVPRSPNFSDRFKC
Kind of data set: cell-based or functional assay.

Data set [2] deals with T1, Targeting Protein for XKlp2 (TPX2), …. Kind of data set: SEC-MALS; Superdex-200-increase 3.2/300; importin-αΔIBB alone and TPX2 (2 μM) with importin-αΔIBB (20 μM). The conditions noted are these: both partners purified.
Data set [3] deals with the molecule itself. The description is as above.
The target in data set [4] is triple-mutant TPX2 (3M-TPX2) (Xenopus laevis, UniProt Q6NUF4 1-716, K123A | K124A | K126A | K284A | R285A | K327A | K330A). Kind of data set: BLI; Octet (ForteBio); TPX2 attached to sensors, importin concentration varied; normalized amplitudes; apparent Kd. The conditions noted are these: both partners purified.
The target of data set [5] is T1, Targeting Protein for XKlp2 (TPX2), …. Described as above. The conditions noted are these: both partners purified.
Another data set addresses T2, TPX2 construct 1 to 178 (Xenopus laevis, UniProt Q6NUF4 1-178).
T2 construct: TPX2, Xenopus laevis, amino acids 1-178; also called wild-type-1-178 TPX2 construct; TPX2 1 to 178; source: recombinant, purified to >95% purity
T2 sequence (looked up): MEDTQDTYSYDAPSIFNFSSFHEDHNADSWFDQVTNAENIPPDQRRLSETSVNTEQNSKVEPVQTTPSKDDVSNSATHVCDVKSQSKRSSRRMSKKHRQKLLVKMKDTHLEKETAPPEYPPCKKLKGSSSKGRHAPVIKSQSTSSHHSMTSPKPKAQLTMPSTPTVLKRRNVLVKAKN
Described as above. The conditions noted are these: both partners purified.

A further data set has as its target T3, TPX2 construct 1 to 260 (Xenopus laevis, UniProt Q6NUF4 1-260).
T3 construct: TPX2, Xenopus laevis, amino acids 1-260; also called TPX2 1 to 260; source: recombinant, purified to >95% purity
T3 sequence (looked up): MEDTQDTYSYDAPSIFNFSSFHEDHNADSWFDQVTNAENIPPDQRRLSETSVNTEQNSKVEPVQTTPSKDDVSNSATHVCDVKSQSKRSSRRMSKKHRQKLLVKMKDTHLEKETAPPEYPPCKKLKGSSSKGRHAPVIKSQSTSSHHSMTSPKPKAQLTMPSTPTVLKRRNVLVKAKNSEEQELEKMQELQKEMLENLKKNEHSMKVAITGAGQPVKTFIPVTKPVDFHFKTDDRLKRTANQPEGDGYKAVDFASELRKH
Described as above. The conditions noted are these: both partners purified.

The target of data set [6] is T4, TPX2 1 to 178 with the KKLK motif mutated (K123A, K124A, K126A) (Xenopus laevis, UniProt Q6NUF4 1-178, K123A | K124A | K126A).
T4 construct: TPX2, Xenopus laevis, amino acids 1-178 with the lysines of KKLK (123-126) mutated to alanines; also called TPX2 1 to 178 (K123A, K124A, K126A); source: recombinant, purified to >95% purity
T4 sequence (looked up): T2 sequence (looked up) with K123A, K124A, K126A
The data set is described as above. The conditions noted are these: both partners purified.

B1: importin-αΔIBB (truncated importin-α without the importin-β-binding domain) (domain or fragment)
chain: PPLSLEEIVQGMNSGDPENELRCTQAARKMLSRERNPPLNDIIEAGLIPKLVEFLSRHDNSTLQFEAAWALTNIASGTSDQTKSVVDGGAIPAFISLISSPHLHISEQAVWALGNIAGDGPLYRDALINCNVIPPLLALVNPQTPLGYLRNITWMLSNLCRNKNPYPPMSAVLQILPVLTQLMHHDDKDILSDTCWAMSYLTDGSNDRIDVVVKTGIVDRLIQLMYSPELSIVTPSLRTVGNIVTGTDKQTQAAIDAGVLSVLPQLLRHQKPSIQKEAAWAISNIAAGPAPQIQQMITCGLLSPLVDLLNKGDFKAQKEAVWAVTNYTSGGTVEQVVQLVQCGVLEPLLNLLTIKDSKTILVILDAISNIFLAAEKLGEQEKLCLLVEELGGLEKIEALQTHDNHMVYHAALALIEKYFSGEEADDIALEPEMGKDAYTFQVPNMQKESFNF
For the molecule B1, the “inhibition of TPX2 condensation (fluorescence microscopy; TPX2 1 μM, importin-αΔIBB 1x to 20x; enhancement at lower concentrations)” value in data set [1] was roughly 20 fold excess. Moreover, the “stoichiometry N” value in data set [2] is > 1 importin-αΔIBB:TPX2; in data set [3], 2. Moreover, the Kd in data set [4] came out at 410 ± 70 nM; in data set [5], 61 ± 10 nM; with TPX2 construct 1 to 178, 15 ± 3 nM; with TPX2 construct 1 to 260, 20 ± 4 nM. Besides, the “fold loss of binding against the wild-type 1-178 construct” value in data set [6] is 10 fold.
